The supplement of paper PMC9170038

Test system: MS2 coat protein
Assay: apparent KD of MS2 coat protein; designed switch direction (-1 OFF switch, 1 ON switch): -1; higher = weaker reporter binding
Procedure, shortened: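 Each step of the titration lasted 0.8–1.5 h at the lowest concentration and 10–20 min at the highest. The protein, SNAP-549-labelled MS2 coat protein, went from 0.7 or 1.5 nM doubling to 3 µM over RNA switches transcribed on Illumina chips by stalled E. coli RNA polymerase. Normalised cluster fluorescence was curve-fitted, and the per-design median over clusters is given as apparent KD.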

[1] = input ligand: microRNA oligo, concentration not stated
[2] = Eterna round: R95, input ligand: FMN 200 uM
[3] = Eterna round: R95, input ligand: microRNA oligo, concentration not stated
[4] = Eterna round: R95, input ligand: none

## UUACGGCGGAGAGGAUAUCCGAAAGGAAGUGUAGGAGAAGGCUCCAGUUGUACAUGAGGAUCACCCAUGUGAUCCUUUCCGAAA [PowerStrip EXNG 1.25] (Eterna round: R96, puzzle: Exclusion NG 1)
Input ligand: FMN 200 uM
  apparent KD of MS2 coat protein: 2040 nM
[1]
  apparent KD of MS2 coat protein: 79.7 nM
Input ligand: none
  apparent KD of MS2 coat protein: 126 nM

## GCCGAAAAUGAGAGGAUAUGCCUAUGGAUACGUAGGCAGAAGGCACAUGAGGAUCACCCAUGUUCCUCAACGGC [JL-BMX4-4.26 Eli mod] (Eterna round: R97, puzzle: Brourd's mod of Exclusion 4)
Input ligand: FMN 200 uM
  apparent KD of MS2 coat protein: 19.4 nM
Input ligand: none
  apparent KD of MS2 coat protein: 14.6 nM

## AGAAGUGCCGAGGAUAUCCAGGCAAUCUCGUUCGGAGAAGGCGGCACUUGAGGAUCACCCAAGUGCUCCUAAGA [Islariat] (Eterna round: R97, puzzle: Exclusion 6)
Input ligand: FMN 200 uM
  apparent KD of MS2 coat protein: 52.1 nM
Input ligand: none
  apparent KD of MS2 coat protein: 14.1 nM

## ACAUGUUGCGCAGGAUAUGGGACACAUGAGGAUCACCCAUGUGGCUACAUGUCAUACCAAGCGUCUCAGAAGGGUGUUAACAUG [Ex NG2 #36] (Eterna round: R96, puzzle: Exclusion NG 2)
Input ligand: FMN 200 uM
  apparent KD of MS2 coat protein: 20.1 nM
[1]
  apparent KD of MS2 coat protein: 14 nM
Input ligand: none
  apparent KD of MS2 coat protein: 17.7 nM

## UCAGUUUUGCGAGGAUAUCGACCAUUCCUCUUUACAUGAGGAUCACCCAUGUGCUUAUCCUACAACGAGAAGGCGCUCAUACUC [JR_ExcNG2_Sub065] (Eterna round: R96, puzzle: Exclusion NG 2)
Input ligand: FMN 200 uM
  apparent KD of MS2 coat protein: 543 nM
[1]
  apparent KD of MS2 coat protein: 580 nM
Input ligand: none
  apparent KD of MS2 coat protein: 574 nM

## AAGUAUAGAGGAUAUAGUGAGUACUACAUGAGGAUCACCCAUGUUCUUCAAAGCGUACUUCUAGAAGGCUGUUAAA [EX-5 Malc#17] (puzzle: Exclusion 5)
[2]
  apparent KD of MS2 coat protein: 452 nM
[3]
  apparent KD of MS2 coat protein: 263 nM
[4]
  apparent KD of MS2 coat protein: 214 nM

## CAUACUGAAGUUAGGAUAUUCGAACGUAUACGGAUGGAGAAGGGACAUGAGGAUCACCCAUGUAGAUAGUAAAG [EX-4 Malc #11] (puzzle: Brourd's mod of Exclusion 4)
[2]
  apparent KD of MS2 coat protein: 23.1 nM
[3]
  apparent KD of MS2 coat protein: 21.5 nM
[4]
  apparent KD of MS2 coat protein: 23.1 nM

## UUGUGCACGCUGCGGUCCUACAUGAGGAUCACCCAUGUGGUCUGGUGGCGUGGGUCACCGGACUUGGCUCGUCUUGA [salish99_S_TOV1_R5_061] (Eterna round: R97, puzzle: Sensor, turn-off variant 1)
Input ligand: FMN 200 uM
  apparent KD of MS2 coat protein: 52.7 nM
Input ligand: none
  apparent KD of MS2 coat protein: 57.8 nM

## GUUGUUUAUGUAGGAUAUGCCUGGCGUGCCUUUGCAGAAGGACAUGAGGAUCACCCAUGUAACAUGAGGCUCACCCAUGUCGCC [salish99_ExNG1_r04_108] (Eterna round: R96, puzzle: Exclusion NG 1)
Input ligand: FMN 200 uM
  apparent KD of MS2 coat protein: 220 nM
[1]
  apparent KD of MS2 coat protein: 72.6 nM
Input ligand: none
  apparent KD of MS2 coat protein: 160 nM

## GGUACUAACACGAGAGUGUUAGUACUAUAAGCUUGUGUUACAUGAGGAUCACCCAUGUCCUCAUAAGCUCGUCUUGU [Mat - Sensor v3 - Turn-off var 2 - D88] (puzzle: Sensor v3, turn-off variant 2)
[2]
  apparent KD of MS2 coat protein: 48.2 nM
[3]
  apparent KD of MS2 coat protein: 54.8 nM
[4]
  apparent KD of MS2 coat protein: 46.8 nM

## UGUUGUUACGCAGGAUAUGAGGAUCACCCAUAUCAGGAUAUCGAAAGAGAAUUUCUGAGGAUCACCCAGAAGGGCGGGUUAACA [pwkr exNG2 2xF5 2xFMN.37] (Eterna round: R96, puzzle: Exclusion NG 2)
Input ligand: FMN 200 uM
  apparent KD of MS2 coat protein: 125 nM
[1]
  apparent KD of MS2 coat protein: 40.3 nM
Input ligand: none
  apparent KD of MS2 coat protein: 47.7 nM

## AUCAGUCGAGGAUAUACGAUCGUGCUUCGGCACGUAAGAUCACAUGAGGAUCACCCAUGUAGAAGGCGACUGAU [Mod 8 - Jieux - Exclusion 2] (Eterna round: R97, puzzle: Exclusion 2)
Input ligand: FMN 200 uM
  apparent KD of MS2 coat protein: 463 nM
Input ligand: none
  apparent KD of MS2 coat protein: 30.4 nM

## ACUCGACAUGAGGAUCACCCAUGUGAGGAUAUGGCCUGUAUGGCGUGAGCUGGCUCAGUCAGAAGGCGCGUGGG [salish99_ex1_r4_047] (Eterna round: R97, puzzle: Exclusion 1)
Input ligand: FMN 200 uM
  apparent KD of MS2 coat protein: 151 nM
Input ligand: none
  apparent KD of MS2 coat protein: 123 nM

## GUGUACAGAGGAUAUGCACGAGGAGUUACGAAAGUAACUUCACAUGAGGAUCACCCAUGUAGAAGGCUGUACAC [Dot plot directed v5] (puzzle: Exclusion 2)
[3]
  apparent KD of MS2 coat protein: 13.9 nM

## GUCAUCAAACAUGGGAUAAACAUGAGGAUCACCCAUGUUAACAAGUUUUUUGCUCGUCUUAUAAUAAGUUUGAUGAC [Antenna 11 - Jieux - Sensor, turn-off variant 1] (Eterna round: R97, puzzle: Sensor, turn-off variant 1)
Input ligand: FMN 200 uM
  apparent KD of MS2 coat protein: 12.4 nM
Input ligand: none
  apparent KD of MS2 coat protein: 13.5 nM

## GCCAGGUGAUUCGGCCAUGACAUGAGGAUCACCCAUGUAACAAUCUAGCAAGCAAACAAGGCCGUCGUGUAGGUAUU [Rigeusarla] (Eterna round: R96, puzzle: Sensor v2, turn-off variant)
Input ligand: FMN 200 uM
  apparent KD of MS2 coat protein: 78 nM
[1]
  apparent KD of MS2 coat protein: 61.1 nM
Input ligand: none
  apparent KD of MS2 coat protein: 76.7 nM

## UAAUUGAUUAAUAGAUUAUACAUGAGGAUCACCCAUGUAGAUCCUACGUGCCAUUUAAGUAGCUCGUCUUAUUAUUA [Sensor-V1 #65] (Eterna round: R97, puzzle: Sensor, turn-off variant 1)
Input ligand: FMN 200 uM
  apparent KD of MS2 coat protein: 59.4 nM
Input ligand: none
  apparent KD of MS2 coat protein: 64.5 nM

## UACAAGCUGCUCUAAUAGAACAUGAGGAUCACCCAUGUUGCUAAACAUGAAAGAAUUGGCUCCGCAUGGAUUGCUCG [Eternabot (L2) Solution 9] (Eterna round: R97, puzzle: Sensor, turn-off variant 1)
Input ligand: FMN 200 uM
  apparent KD of MS2 coat protein: 31.9 nM
Input ligand: none
  apparent KD of MS2 coat protein: 33.6 nM

## CUCUUGUCAGGAUAUCAACGCCAUCCACAUGGACGGCGAAAUGAGAAGGGACAUGAGGAUCACCCAUGUUAAAA [Xeveleqube] (puzzle: Exclusion 4)
[2]
  apparent KD of MS2 coat protein: 27.3 nM
[3]
  apparent KD of MS2 coat protein: 117 nM
[4]
  apparent KD of MS2 coat protein: 139 nM

## UAACUGUGAGGAUAUUCGUAGUACACGGAGACGUGUAUUACGGAGAAGGCACAUGAGGAUCACCCAUGUUCCUU [Default title] (Eterna round: R97, puzzle: Exclusion 4)
Input ligand: FMN 200 uM
  apparent KD of MS2 coat protein: 75.6 nM
Input ligand: none
  apparent KD of MS2 coat protein: 17.4 nM

## UUGCUCGUCUUGCUUCCUAACAUGAGGAUCACCCAUGUCGACGGUGAGACGCAAGAGCCAUCUCGCCGUUGAUCGUC [Eternabot (Original) Solution 4] (Eterna round: R97, puzzle: Sensor, turn-off variant 1)
Input ligand: FMN 200 uM
  apparent KD of MS2 coat protein: 134 nM
Input ligand: none
  apparent KD of MS2 coat protein: 159 nM

## GGAUAAAACUGAGGAUAUGCGUAUCGCUAGCGAGCAGAAGGCAGACAUGAGGAUCACCCAUGUGAGUUCUCGAUAAGAAACACG [Prohibition 59 - Jieux - Exclusion NG 1] (Eterna round: R96, puzzle: Exclusion NG 1)
Input ligand: FMN 200 uM
  apparent KD of MS2 coat protein: 145 nM
[1]
  apparent KD of MS2 coat protein: 54.8 nM
Input ligand: none
  apparent KD of MS2 coat protein: 57.7 nM

## AUUUUGUCAGGAUAUGAGUAGUAGGACGAAAGUGUUAUUAUUUAGAAGGGACAUGAGGAUCACCCAUGUUUUCC [Bring Us a Shrubbery-04] (puzzle: Exclusion 4)
[3]
  apparent KD of MS2 coat protein: 12 nM

## AAUAAGUGAGGAUAUGGAAUAAUAAAUAAAAUAAUAAAUAACCAGAAGGCACAUGAGGAUCACCCAUGUAAUAA [JMF's solution 3] (puzzle: Exclusion 4)
[2]
  apparent KD of MS2 coat protein: 27.4 nM
[3]
  apparent KD of MS2 coat protein: 23.7 nM
[4]
  apparent KD of MS2 coat protein: 21.4 nM

## AAGUAGACGGUGAGGAUAUAGGUCGAAUGACCGAUUUAGAAGGCACAUGAGGAUCACCCAUGUGGGUAACGUCG [Brourd's EX4 #30] (Eterna round: R97, puzzle: Brourd's mod of Exclusion 4)
Input ligand: FMN 200 uM
  apparent KD of MS2 coat protein: 24.1 nM
Input ligand: none
  apparent KD of MS2 coat protein: 27.5 nM

## UUACAAUGUCGCUUAAUAGCUUUUUGCUCGUCUUAUAUUACAUGAGGAUCACCCAUGUAGAUCAUGUGGCGUGACCU [JL ViennaUCT Maridi mod 7] (puzzle: Sensor v3, turn-off variant 2)
[2]
  apparent KD of MS2 coat protein: 206 nM
[3]
  apparent KD of MS2 coat protein: 40.7 nM
[4]
  apparent KD of MS2 coat protein: 210 nM

## AAAUUAGCAAGUAGGUCCGACAUGAGGAUCACCCAUGUAAUCUAAAAUUACGCUGCACGAAAGUGCGCUCGUCUUAG [Sensor-V1 #12] (Eterna round: R97, puzzle: Sensor, turn-off variant 1)
Input ligand: FMN 200 uM
  apparent KD of MS2 coat protein: 439 nM
Input ligand: none
  apparent KD of MS2 coat protein: 385 nM

## GUCAGCUCGUGAGGAUAUACAUCACUGCUUCGGCAGUGUAUUAAGAUCACAUGAGGAUCACCCAUGUAGAAGGCACGAGCUGAU [ENG2/2-A2] (Eterna round: R96, puzzle: Exclusion NG 2)
Input ligand: FMN 200 uM
  apparent KD of MS2 coat protein: 1020 nM
[1]
  apparent KD of MS2 coat protein: 27.6 nM
Input ligand: none
  apparent KD of MS2 coat protein: 39 nM

## AACCAACAUGAGGAUCACCCAUGUGAGGAUAUAGCUAACGACCAGACCUGGAAUGUUGUUAGAAGGUGCAGGGU [Eternabot (Original) Solution 4] (Eterna round: R97, puzzle: Exclusion 1)
Input ligand: FMN 200 uM
  apparent KD of MS2 coat protein: 44.4 nM
Input ligand: none
  apparent KD of MS2 coat protein: 36.2 nM

## AUAUUAGCAGGAUAUAUCCGGGAUAACAUGAGGAUCACCCAUGUGACCGCUUGAUAUCCUAUAGAAGGGCUUUAUA [Mod of ViennaUCT 29 - Jieux - Exclusion 5] (Eterna round: R97, puzzle: Exclusion 5)
Input ligand: FMN 200 uM
  apparent KD of MS2 coat protein: 35.3 nM
Input ligand: none
  apparent KD of MS2 coat protein: 20.6 nM

## UUAAAUCAUGUAGGAUAUGCGUGGCGAAGCUAUGCAGAAGGACAUGAGGAUCACCCAUGUCUUUCCGUCUGCGUACAGAUGGAG [JL Eng1 1.08 mod 4] (Eterna round: R96, puzzle: Exclusion NG 1)
Input ligand: FMN 200 uM
  apparent KD of MS2 coat protein: 191 nM
[1]
  apparent KD of MS2 coat protein: 17.4 nM
Input ligand: none
  apparent KD of MS2 coat protein: 24.7 nM

## ACUCGACAUGAGGAUCACCCAUGUGAGGAUAUGGCCUGUAUGGCGUGAGCUGGCUCUGUCAGAAGGCGCGUGGG [salish99_ex1_r4_046] (Eterna round: R97, puzzle: Exclusion 1)
Input ligand: FMN 200 uM
  apparent KD of MS2 coat protein: 55.5 nM
Input ligand: none
  apparent KD of MS2 coat protein: 59 nM
